{
  "source": "paper PMC10498669",
  "target": "AAV8 VP3 of the VP3-only capsid (VLP-0) (adeno-associated virus serotype 8)",
  "assay": "native MS; high-resolution ensemble native MS of purified capsids; 75 mM ammonium acetate pH 7.5; Orbitrap Q Exactive UHMR, xenon collision gas, positive ion mode; spectra compared with simulations of stochastic assembly",
  "data": [
    {"substance": "AAV8 VP3 of the VP3-only capsid (VLP-0) (natural protein)", "values": [
      {"measurement": "stoichiometry N", "result": 60}
    ]}
  ]
}
